This is an account of results in patent US20220243288, “BIOSENSORS FOR POLYKETIDE EXTENDER UNITS AND USES THEREOF” (NORTH CAROLINA STATE UNIVERSITY, published 2022).

The target of the data set is T1, FapR (Bacillus subtilis, UniProt O34835 SEQ:1-188).
T1 sequence: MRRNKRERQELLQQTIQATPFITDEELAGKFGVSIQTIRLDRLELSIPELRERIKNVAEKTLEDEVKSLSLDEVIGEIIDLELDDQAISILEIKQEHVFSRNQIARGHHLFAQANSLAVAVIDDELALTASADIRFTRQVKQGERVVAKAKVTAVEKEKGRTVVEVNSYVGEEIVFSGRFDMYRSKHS
Briefly: EMSA; near-complete shift; 2 pmol fapO, 6 pmol FapR (text also says two-fold excess); 10 mM Tris pH 7.5, 100 mM KCl, 30 C; released by 200 uM malonyl-CoA or methylmalonyl-CoA. The note with it: tags: C-terminal His6 (pET28a); chain copies: 2. The text has this:
The saturated alkyl derivatives emCoA and bmCoA were the poorest effectors, based on the fluorescence data. This robust activity of pgmCoA is due in part to the increased rigidity of the alkyne side-chain or additional interactions of the alkynyl […] with the FapR ligand-binding site, with the […] side-chain of the nearby Phe99 (FIG. 5A). Gratifyingly, de-repression was not observed in the presence of propionyl-CoA and was indistinguishable from the (−) thioester control. To provide further evidence that FapR is de-repressed by derivatives of mCoA, FapR was tested in vitro for DNA-binding and release by electrophoretic mobility shift assay (EMSA) in the presence of mCoA or mmCoA. Using purified wild-type FapR protein, EMSA was run with a 40 bp DNA fragment containing the fapO binding site (FIG. 7). […] Incubation with the FapR-fapO complex with mmCoA achieved a similar level of de-repression as that observed with mCoA (FIG. 7).
Electrophoretic mobility shift assay. The fapO oligonucleotides 5′-[…]-3′ (SEQ ID NO:30) and 5′-[…]-3′ (SEQ ID NO:31) were annealed per standard procedure. […] Reactions were then analyzed by electrophoresis on a 6% PAGE gel at 220 V. The gel was stained with SYBR Green I and imaged on a Typhoon FLA 7000.

B1: 40 bp fapO fragment (dsDNA)
DNA 1: CCTAGGACTATTAGTACCTAGTCTTAATTGTCCGGCATCC
DNA 2: GGATGCCGGACAATTAAGACTAGGTACTAATAGTCCTAGG
Consider B1, for which the binding result is “binds”.
